Laboratory results taken from patent US20240324599A1, “PESTICIDAL ENZYMES FOR USE ON NEMATODES, INSECTS, AND MOLLUSKS” (priority 2023, published 2024).

Tests used:
Format in all cases: in vivo
winter wheat [1] = test: Field trial: esterase on urea fertilizer, winter wheat yield; conditions: for Yield: winter wheat
Method: Esterase A (EstA) from Bacillus subtilis (SEQ ID NO:254) was produced via fermentation of a recombinantly produced enzyme in Bacillus subtilis. 1 fl oz or 2 fl oz of fermentation product was applied onto 15 lb N/A (nitrogen equivalent per acre) urea fertilizer in a concrete mixer and allowed to mix for 1 minute. A urea control treatment without fermentation media was also created. urea, alone or with fermentation media was distributed across 4 small replicated plots prior to planting of winter wheat with 5 replicates of 300 ft^2 each at each site.

corn [2] = test: Field trial: esterase on DAP fertilizer, corn yield; conditions: for Yield: corn
Method: (§1) Esterase A (EstA) from Bacillus subtilis (SEQ ID NO:254) was produced via fermentation of a recombinantly produced enzyme in Bacillus subtilis. 1, 2, or 3 fl oz of fermentation product was applied onto 67.5 lb P/A (phosphate equivalent per acre) diammonium phosphate (DAP) fertilizer in a concrete mixer, and allowed to mix for 1 minute. A DAP control treatment without fermentation media was also created. DAP, alone or with fermentation media was distributed across 4 small replicated plots each prior to planting of corn with 4 replicates of 400 ft^2 each at each site.

winter wheat [3] = test: Field trial: esterase on MAP fertilizer, winter wheat yield and vigor; conditions: for Yield: winter wheat
Method: Esterase A (EstA) from Bacillus subtilis (SEQ ID NO:254) was produced via fermentation of a recombinantly produced enzyme in Bacillus subtilis. 1 fl oz of fermentation product was applied onto 15 lb P/A (phosphate equivalent per acre) monoammonium phosphate (MAP) fertilizer in a concrete mixer and allowed to mix for 1 minute. A MAP control treatment without fermentation media was also created. MAP, alone or with fermentation media was distributed across 4 small replicated plots prior to planting of winter wheat with 5 replicates of 300 ft^2 each at each site.

corn [4] = test: Field trial: esterase on MAP/DAP fertilizer, corn yield; conditions: for Yield: corn, 2 fl oz/A on MAP/DAP (72 lb/A Phosphate)
Method: Esterase A (EstA) from Bacillus subtilis (SEQ ID NO:254) was produced via fermentation of a recombinantly produced enzyme in Bacillus subtilis. 2 fl oz of fermentation product was applied onto either 72 lb P/A (phosphate equivalent per acre) monoammonium phosphate (MAP) fertilizer or diammonium phosphate (DAP) fertilizer in a concrete mixer, and allowed to mix for 1 minute. A MAP/DAP control treatment without fermentation media was also created. MAP or DAP, alone or with fermentation media was distributed across 4 small replicated plots each prior to planting of corn with 5 replicates of 400 ft2 each at each site (4 site with MAP, 4 sites with DAP, combined in data in Table 52 below).

corn [5] = test: Field trial: EstA Esterase corn seed treatment, yield; conditions: text to Table 59; 2.5 fl oz/unit
Text: 2.5 fl oz/unit of EstA Esterase from recombinant Bacillus subtilis fermentation (SEQ ID NO: 254) was coated onto hybrid corn seeds treated with Fludioxinil, Azoxystrobin, mefonoxam, and thiabendaz fungicides, cyantraniliproleinsecticide, peridium 1006 polymer, and (colorant). A control treatment without esterase enzyme was also created. The seed treated with esterase and control seed was planted in replicated trials distributed across 16 replicated plots with 4 replicates of 80 ft2 each at each site.

corn [6] = test: Field trial: esterase on urea with or without NBPT, corn yield; conditions: for Yield: corn
Method: as §1, with “135” for “67.5”, “N/A (nitrogen” for “P/A (phosphate”, “urea” for “diammonium phosphate (DAP)”, “urea” for “DAP”, “An addition treatment that contained 64 fl oz/ton N-Butyl-thiophosphoric triamide (NBPT) nitrogen stabilizer or 64 fl oz/ton NBPT nitrogen stabilizer with 3 fl oz/A EstA fermentation product was also included in the trial. Urea,” for “DAP,”, “ft2” for “ft^2”

B1: Bacillus subtilis EstA Esterase (protein, listed as Bacillus subtilis)
chain: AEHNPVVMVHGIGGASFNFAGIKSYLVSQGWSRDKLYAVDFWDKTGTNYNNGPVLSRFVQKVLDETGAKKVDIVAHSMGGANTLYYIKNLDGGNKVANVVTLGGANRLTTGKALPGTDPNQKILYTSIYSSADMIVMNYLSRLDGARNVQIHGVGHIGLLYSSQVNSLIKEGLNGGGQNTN
notes: fermentation product of recombinant Bacillus subtilis
- yield versus urea control, in words (winter wheat [1]; text to Table 53, 1 or 2 fl oz on 15 lb N/A urea): increased the yield
- Yield (winter wheat [1]; 1 fl oz/A on Urea (15 lb/A Nitrogen), base control 76.1): 79.6 Bu/A
- Yield (winter wheat [1]; 1 fl oz/A on Urea (15 lb/A Nitrogen), base control 5117.8): 5353.2 Kg/ha
- Yield (winter wheat [1]; 2 fl oz/A on Urea (15 lb/A Nitrogen), base control 76.1): 79.9 Bu/A
- Yield (winter wheat [1]; 2 fl oz/A on Urea (15 lb/A Nitrogen), base control 5117.8): 5375.4 Kg/ha
- Yield (corn [2]; 1 fl oz/A on DAP (67.5 lb/A Phosphate), base control 196.0): 201.8 Bu/A
- Yield (corn [2]; 1 fl oz/A on DAP (67.5 lb/A Phosphate), base control 12319.5): 12684.4 Kg/ha
- Yield (corn [2]; 2 fl oz/A on DAP (67.5 lb/A Phosphate), base control 196.0): 204.2 Bu/A
- Yield (corn [2]; 2 fl oz/A on DAP (67.5 lb/A Phosphate), base control 12319.5): 12834.7 Kg/ha
- Yield (corn [2]; 3 fl oz/A on DAP (67.5 lb/A Phosphate), base control 196.0): 202.6 Bu/A
- Yield (corn [2]; 3 fl oz/A on DAP (67.5 lb/A Phosphate), base control 12319.5): 12734.7 Kg/ha
- yield versus DAP control, in words (corn [2]; text to Table 54, 1, 2 or 3 fl oz on 67.5 lb P/A DAP): increased the yield
- vigor of young wheat seedlings, in words (winter wheat [3]; text to Table 51): increased the vigor
- yield versus MAP control, in words (winter wheat [3]; text to Table 51, 1 fl oz fermentation product on 15 lb P/A MAP): increased the yield
- Vigor Score (1 to 5 scale, 5 is highest) (winter wheat [3]; winter wheat seedlings, 1 fl oz/A on MAP (15 lb/A Phosphate), base control 4.0): 4.13
- Yield (winter wheat [3]; 1 fl oz/A on MAP (15 lb/A Phosphate), base control 61.33): 62.82 Bu/A
- Yield (winter wheat [3]; 1 fl oz/A on MAP (15 lb/A Phosphate), base control 4124.5): 4224.7 Kg/ha
- Yield (corn [4]; base control 202.3): 206.6 Bu/A
- Yield (corn [4]; base control 12798): 13077 Kg/ha
- yield versus MAP/DAP control, in words (corn [4]; text to Table 52, 2 fl oz on 72 lb P/A MAP or DAP): increased the yield
- yield versus base seed treatment package, in words (corn [5]): increased the yield
- Yield (corn [6]; 1 fl oz/A on Urea (135 lb/A Nitrogen), base control 188.2): 205.0 Bu/A
- Yield (corn [6]; 1 fl oz/A on Urea (135 lb/A Nitrogen), base control 11830.4): 12887.5 Kg/ha
- Yield (corn [6]; 2 fl oz/A on Urea (135 lb/A Nitrogen), base control 188.2): 195.8 Bu/A
- Yield (corn [6]; 2 fl oz/A on Urea (135 lb/A Nitrogen), base control 11830.4): 12309.9 Kg/ha
- Yield (corn [6]; 3 fl oz/A on Urea (135 lb/A Nitrogen), base control 188.2): 195.6 Bu/A
- yield versus urea control and NBPT containing treatments, in words (corn [6]; text to Table 55, 1, 2 or 3 fl oz on 135 lb N/A urea): increased the yield
